Reference: patent US20230038638A1, “COMPLEMENT FACTOR I-RELATED COMPOSITIONS AND METHODS” (published 2023)

Experiments:
[1] = biological target: soluble human C3b (human) (UniProt P01024)
human C4b (human) = biological target: T1, human C4b (human) (UniProt P0C0L4)
T1 sequence: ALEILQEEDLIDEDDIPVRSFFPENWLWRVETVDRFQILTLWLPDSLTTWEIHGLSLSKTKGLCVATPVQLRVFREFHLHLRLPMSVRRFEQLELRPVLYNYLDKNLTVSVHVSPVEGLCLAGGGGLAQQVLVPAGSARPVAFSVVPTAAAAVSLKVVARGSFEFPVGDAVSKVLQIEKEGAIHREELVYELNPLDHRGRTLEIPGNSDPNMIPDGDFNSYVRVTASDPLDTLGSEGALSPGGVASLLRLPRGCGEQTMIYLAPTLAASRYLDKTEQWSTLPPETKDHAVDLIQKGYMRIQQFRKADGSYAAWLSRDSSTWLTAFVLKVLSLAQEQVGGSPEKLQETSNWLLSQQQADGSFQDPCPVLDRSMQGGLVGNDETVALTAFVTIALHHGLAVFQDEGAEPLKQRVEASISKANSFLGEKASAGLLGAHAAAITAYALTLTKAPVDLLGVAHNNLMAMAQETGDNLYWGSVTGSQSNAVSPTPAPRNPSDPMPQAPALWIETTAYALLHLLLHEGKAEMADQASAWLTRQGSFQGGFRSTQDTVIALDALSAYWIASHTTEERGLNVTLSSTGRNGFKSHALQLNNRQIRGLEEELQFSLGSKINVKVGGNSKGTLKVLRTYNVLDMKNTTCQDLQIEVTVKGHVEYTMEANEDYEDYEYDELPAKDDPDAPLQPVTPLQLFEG

| iC3b Screen Ref Fold (fold of CFI-HSA wild type) [1] | C4b Screen Ref Fold (fold of CFI-HSA wild type) (human C4b (human)) | iC3b Screen Ref Fold (fold of reference) [1] | C4b Screen Ref Fold (fold of reference) (human C4b (human)) | Substance |
| --- | --- | --- | --- | --- |
| 1.02 | 5.24 | – | – | CFI-HSA Y408L; E457G; R462K (enzyme) |
| – | – | 0.29 | 0.95 | CFI-HSA variant N531W (enzyme) |
| 1.55 | 6.67 | – | – | CFI-HSA N531G; E457G; E461Q; R462K (enzyme) |
| – | – | 0.57 | 0.75 | CFI-HSA variant N531V (enzyme) |
| 0.46 | 3.18 | – | – | CFI-HSA variant R557A; N531M; Y403F; K504Y; E457G; E461L (enzyme) |
| – | – | 0.04 | 1.28 | CFI-HSA-FH_CCP1-4 fusion, Y408L; N531G; E457G; E461Q; R462K; F464Y; GGSSGG (SEQ ID NO: 6); CCP_1-4 (enzyme) |
| 0.77 | 1.44 | – | – | CFI-HSA K534T (enzyme) |
| 0.01 | 0.14 | – | – | CFI-HSA P535D (enzyme) |
| 1.14 | 0.05 | – | – | CFI-HSA variant E530F; K504R (enzyme) |
| 0.13 | 0.17 | – | – | CFI-HSA K534G (enzyme) |
| 1.13 | 0.06 | – | – | CFI-HSA variant Y408M; P558S (enzyme) |
| – | – | 1.56 | 0.77 | CFI-HSA variant P558S (enzyme) |
| 0.53 | 0.27 | – | – | CFI-HSA P535L (enzyme) |
| 0.4 | 3.31 | – | – | CFI-HSA variant R557A; N531M; Y403F; K504Y; E457G; E461T (enzyme) |
| 1.87 | 1.83 | – | – | CFI-HSA D425Q (enzyme) |
| – | – | 0 | -0.07 | CFI-HSA variant G469L; R456N; E457T; K458A (enzyme) |
| 0.7 | 3.46 | – | – | CFI-HSA variant N531M; Y403F; K504Y; E457G; E461Q (enzyme) |
| 0.01 | 0.05 | – | – | CFI-HSA variant Y408M; E530F; F537K; K504R (enzyme) |
| – | – | -0.01 | 0.15 | CFI-HSA variant K340G (enzyme) |
| 2.02 | 3.52 | – | – | CFI-HSA variant N422K; E457G; E461Q; N531G (enzyme) |
| 0.88 | 6.5 | – | – | CFI-HSA E457G; N531G (enzyme) |
| 0.37 | 1.24 | – | – | CFI-HSA P535Q (enzyme) |
| – | – | 0.67 | 0.8 | CFI-HSA variant E461W (enzyme) |
| – | – | 0.05 | 1.4 | CFI-HSA-FH_CCP1-4 fusion, Y408L; N531G; GGSSGG (SEQ ID NO: 6); CCP_1-4 (enzyme) |
| 0 | 0.31 | – | – | CFI-HSA D506H (enzyme) |

Second part, the substance before the results:

| Substance | iC3b Screen Ref Fold (fold of CFI-HSA wild type) [1] | C4b Screen Ref Fold (fold of CFI-HSA wild type) (human C4b (human)) | iC3b Screen Ref Fold (fold of reference) [1] | C4b Screen Ref Fold (fold of reference) (human C4b (human)) |
| --- | --- | --- | --- | --- |
| CFI-HSA variant D425K; Y408M; E530F; F537K; P558S (enzyme) | 0.04 | 0.07 | – | – |
| CFI-HSA variant E461Q; S507A (enzyme) | -0.04 | -0.01 | – | – |
| CFI-HSA D506T (enzyme) | 0.04 | 0.39 | – | – |
| CFI-HSA N531G; E457G; R462K (enzyme) | 1.92 | 7.02 | – | – |
| CFI-HSA variant T377G; Y408M; N422K; E457G; E461Q; E530F; N531G (enzyme) | 1.15 | 2.93 | – | – |
| CFI-HSA F208Y; F246Y; F480Y; F537Y (enzyme) | 1.45 | 0.42 | – | – |
| CFI-HSA variant E416A; E457G; E461Q; R462K; F464Y; N531G (enzyme) | 3.21 | 3.68 | – | – |
| CFI-HSA variant W381A; ΔP384 (enzyme) | – | – | 0.01 | -0.05 |
| CFI-HSA K534F (enzyme) | 0.91 | 0.97 | – | – |
| CFI-HSA P535H (enzyme) | 0.42 | 0.22 | – | – |
| CFI-HSA Y408L; N531G; E457G; E461Q; R462K; F464Y; S507A (enzyme) | -0.01 | 0.04 | – | – |
| CFI-HSA variant A405S; G406R; Y408L; Q409D (enzyme) | – | – | 0.13 | -0.08 |
| CFI-HSA D506W (enzyme) | 0.03 | 0.01 | – | – |
| CFI-HSA Y408L; N531G; E461Q; R462K (enzyme) | 1.24 | 6.79 | – | – |
| CFI-HSA K504D; Y408L; N531G (enzyme) | 0.07 | 3.45 | – | – |
| CFI-HSA E457G; E461Q; F464Y (enzyme) | 1.25 | 6.56 | – | – |
| CFI-HSA Y408L; E457G; F464Y (enzyme) | 1.13 | 5.57 | – | – |
| CFI-HSA S507A; GGSSGG (SEQ ID NO: 6); CCP_1-4 (enzyme) | 0 | 0.43 | – | – |
| CFI-HSA F464H (enzyme) | 0.23 | 0.1 | – | – |
| CFI-HSA K534H (enzyme) | 1.79 | 1.9 | – | – |
| CFI-HSA variant E457G; E461Q; N531G; S507A (enzyme) | -0.04 | -0.05 | – | – |
| CFI-HSA E457G; S507A; GGSSGG (SEQ ID NO: 6); CCP_1-4 (enzyme) | 0.01 | 0.12 | – | – |
| CFI-HSA K14A; D425R; Y408L-N531G (enzyme) | 1.78 | 3.94 | – | – |
| CFI-HSA Y408L; E461Q; R462K (enzyme) | 1.33 | 2.53 | – | – |
| CFI-HSA K534V (enzyme) | 1.49 | 1.96 | – | – |
| CFI-HSA P535N (enzyme) | 0.08 | 0.33 | – | – |
